B1: HDV Ribozyme (parent)
chain: GGCCGGCAUGGUCCCAGCCUCCUCGCUGGCGCCGGCUGGGCAACAUUCCGAGGGGACCGUCCCCUCGGUAAUGGCGAAUGGGACCCA

Variants of: B1
Assay: self-cleavage, relative activity (ratio to wild type); higher = more cleavage; co-transcriptional
With G25U G55C the self-cleavage was 0.228.
With C63U G68U the self-cleavage was 0.8.
Work on C13G C75A yielded a self-cleavage of 0.
Variant G67C U79A has a self-cleavage of 0.935.
In the case of C13A U65A, the self-cleavage is reported as 0.348.
Variant U20C G82A has a self-cleavage of 0.0462.
In the case of C4G C22U, the self-cleavage is reported as 0.0449.
With U9G A83C the self-cleavage was 0.554.
With C36A G82C the self-cleavage was 0.112.
Variant G40U C57G has a self-cleavage of 0.712.
For G52A C75A, the self-cleavage was 0.166.
Work on C19U C21G yielded a self-cleavage of 0.0339.
For C48A U65C, the self-cleavage was 0.98.
In the case of A8G G73A, the self-cleavage is reported as 0.369.
C15U C32U gave a self-cleavage of 0.73.
C15U A71G gave a self-cleavage of 1.14.
C7A C21G showed a self-cleavage of 0.
For G39U A78G, the self-cleavage was 0.198.
With U12G G81A the self-cleavage was 0.201.
In the case of G28A G35U, the self-cleavage is reported as 0.0601.
C26U U72A showed a self-cleavage of 0.731.
For C36U C84A, the self-cleavage was 0.489.
A45C A87U showed a self-cleavage of 0.531.
Variant A45G A87C has a self-cleavage of 1.11.
For C21A G40U, the self-cleavage was 0.134.
For G2C A87C, the self-cleavage was 0.0523.
C19U C62U gave a self-cleavage of 0.244.
G28C C75A gave a self-cleavage of 0.113.
Variant G35U C36U has a self-cleavage of 0.101.
Work on C7G C15G yielded a self-cleavage of 0.
Work on A45C G73C yielded a self-cleavage of 0.424.
G52U A77G showed a self-cleavage of 0.647.
Work on U20A C58G yielded a self-cleavage of 0.158.
Variant U37G A43C has a self-cleavage of 0.133.
U27A C32U showed a self-cleavage of 0.923.
With G34A C36U the self-cleavage was 0.0623.
Variant C33G A51G has a self-cleavage of 0.111.
With C33A A43U the self-cleavage was 0.163.
In the case of A56G A71C, the self-cleavage is reported as 0.534.
In the case of C4G C85U, the self-cleavage is reported as 0.306.
G5C G29C showed a self-cleavage of 0.0615.
For G52U C85G, the self-cleavage was 0.791.
G53C A70C gave a self-cleavage of 0.653.
Variant U12G G31U has a self-cleavage of 0.277.
For A16U G40U, the self-cleavage was 0.964.
For A43U C66G, the self-cleavage was 0.47.
G11C U20G gave a self-cleavage of 0.
C22G C30U showed a self-cleavage of 0.0723.
C32A U37G gave a self-cleavage of 0.166.
For G1A C22A, the self-cleavage was 0.0831.
For G73U A83C, the self-cleavage was 0.17.
C3U C21A gave a self-cleavage of 0.122.
In the case of G53U U79A, the self-cleavage is reported as 0.509.
Variant G29C G55C has a self-cleavage of 0.0332.
With G31U G82A the self-cleavage was 0.185.
G1A A43G gave a self-cleavage of 0.0875.
For C15U C86G, the self-cleavage was 0.91.
Variant C21U G38C has a self-cleavage of 0.0923.
C33G C66U gave a self-cleavage of 0.181.
Variant A45U G52A has a self-cleavage of 0.798.
A43C G59U gave a self-cleavage of 0.639.
In the case of A16C C66A, the self-cleavage is reported as 0.718.
Work on G40A C41A yielded a self-cleavage of 0.893.
For C22U U23G, the self-cleavage was 0.246.
G35U A45G showed a self-cleavage of 0.365.
Work on U9A A87C yielded a self-cleavage of 1.04.
Work on A16C C58U yielded a self-cleavage of 1.05.
G10U C49U showed a self-cleavage of 0.955.
With A16U C58A the self-cleavage was 1.09.
G25A G31U showed a self-cleavage of 0.0536.
G1A C3U gave a self-cleavage of 0.297.
G39A C41U showed a self-cleavage of 0.793.
In the case of A16G G68C, the self-cleavage is reported as 1.06.
For C13A U23G, the self-cleavage was 0.0923.
With C49G G82A the self-cleavage was 0.0966.
G34U G59U showed a self-cleavage of 0.229.
In the case of G2A A77C, the self-cleavage is reported as 0.0437.
A43G G67U gave a self-cleavage of 0.527.
For G28C A42G, the self-cleavage was 0.
In the case of A42U G52U, the self-cleavage is reported as 0.592.
With A16C C24G the self-cleavage was 0.0692.
For C7A U72C, the self-cleavage was 0.196.
G11U G55U gave a self-cleavage of 0.436.
G2A G40U gave a self-cleavage of 0.0799.
